Literature values, collected in patent US20240409647A1, “BISPECIFIC BINDING PROTEINS AGAINST ALARMINS AND USES THEREOF” (SINOMAB BIOSCIENCE LIMITED, priority 2022, published 2024).

Details: patients who discontinued ICS and LABA, 12 weeks; placebo 41%

B1: itepekimab: anti-IL-33 antibody (antibody, chains of the INN, looked up, V domains shown)
VH: EVQLVESGGNLEQPGGSLRLSCTASGFTFSRSAMNWVRRAPGKGLEWVSGISGSGGRTYYADSVKGRFTISRDNSKNTLYLQMNSLSAEDTAAYYCAKDSYTTSWYGGMDVWGHGTTVTVSS
VL: DIQMTQSPSSVSASVGDRVTITCRASQGIFSWLAWYQQKPGKAPKLLIYAASSLQSGVPSRFSGSGSGTDFTLTISSLQPEDFAIYYCQQANSVPITFGQGTRLEIK
rate of loss of asthma control: 22%
